Assays:
[1] = molecular target: human β2GPI (beta2-glycoprotein I) (human (endogenous in pooled normal human serum)) (UniProt P02749); test: ELISA
[2] = molecular target: mouse β2GPI (beta2-glycoprotein I) (mouse (endogenous in pooled BALB/c mouse serum)) (UniProt Q01339); test: ELISA
[3] = molecular target: domain V of human β2GPI (human) (UniProt P02749); test: ITC
Sequence of domain V of human β2GPI (human) (P02749 263-345): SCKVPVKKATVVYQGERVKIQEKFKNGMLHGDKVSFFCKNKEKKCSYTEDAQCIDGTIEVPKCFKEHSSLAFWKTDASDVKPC

Sequence of mouse β2GPI (beta2-glycoprotein I) (mouse (endogenous in pooled BALB/c mouse serum)) (Q01339 20-345): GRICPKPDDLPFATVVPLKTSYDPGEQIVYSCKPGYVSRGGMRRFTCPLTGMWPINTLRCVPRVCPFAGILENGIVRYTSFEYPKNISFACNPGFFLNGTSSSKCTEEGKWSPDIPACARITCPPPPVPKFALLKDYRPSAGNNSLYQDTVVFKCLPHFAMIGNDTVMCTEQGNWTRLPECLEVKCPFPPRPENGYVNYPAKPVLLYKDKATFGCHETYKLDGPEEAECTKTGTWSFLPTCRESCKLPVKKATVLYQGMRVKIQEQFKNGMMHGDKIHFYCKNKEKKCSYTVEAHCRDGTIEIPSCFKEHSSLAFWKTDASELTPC
Sequence of human β2GPI (beta2-glycoprotein I) (human (endogenous in pooled normal human serum)) (P02749 20-345): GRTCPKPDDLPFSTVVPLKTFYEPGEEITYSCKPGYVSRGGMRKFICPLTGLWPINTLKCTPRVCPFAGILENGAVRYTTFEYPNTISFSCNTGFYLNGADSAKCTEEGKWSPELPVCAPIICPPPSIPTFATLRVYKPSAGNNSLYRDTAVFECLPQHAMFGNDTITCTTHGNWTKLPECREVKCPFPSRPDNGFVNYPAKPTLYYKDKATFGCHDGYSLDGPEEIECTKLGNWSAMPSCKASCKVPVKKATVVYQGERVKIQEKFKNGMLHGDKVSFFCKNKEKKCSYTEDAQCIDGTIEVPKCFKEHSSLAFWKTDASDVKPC

Substance	IC50 [1]	IC50 [2]	Kd [3]	dH [3]	stoichiometry N [3]
mouse A1-A1	2.7 µM	3 µM	–	–	–
human A1, first ligand-binding module of ApoE receptor 2 (ApoER2) (domain or fragment)	–	–	20 µM	-6.3 kcal/mol	1.06
Asn36/Asp mutant of mouse A1-A1 (from UniProt Q924X6 40-75; Q924X6 40-75)	2.5 µM	2.8 µM	–	–	–

The next lines start with the values.

IC50 [1]	IC50 [2]	Kd [3]	dH [3]	stoichiometry N [3]	Substance
5 µM	3.1 µM	–	–	–	human A1-A1
–	–	26 µM	-5.5 kcal/mol	1.06	mouse A1, first ligand-binding module of ApoE receptor 2 (ApoER2) (domain or fragment)

Reference: publication PMC4351136
